Earlier results in paper PMC9900175.

Target: CD200R (Homo sapiens) (UniProt Q8TD46)
Chain of UniProt Q8TD46 (Q8TD46 25-265): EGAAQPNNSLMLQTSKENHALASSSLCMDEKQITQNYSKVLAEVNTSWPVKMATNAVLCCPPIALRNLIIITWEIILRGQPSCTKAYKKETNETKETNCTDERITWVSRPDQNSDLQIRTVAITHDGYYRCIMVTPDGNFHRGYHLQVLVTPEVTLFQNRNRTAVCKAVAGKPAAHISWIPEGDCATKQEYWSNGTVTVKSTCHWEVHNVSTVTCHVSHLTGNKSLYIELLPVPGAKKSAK

## CD200 (from UniProt P41217)
  Kd: 500 nM
